System: PPIs identified as affected by the SH3 domain deletions
Assay: Liquid DHFR-PCA low-throughput validation of PPIs affected by SH3 deletion (Fig. S1D-E)
Type: cell-based, Saccharomyces cerevisiae
Details: label = prey, liquid DHFR-PCA, prey _1 = lost, _2 = gained in screen
Summary of the method: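 Growth at 30 °C was tracked by OD each 15 min over 72 h in agar-free PCA selection medium, starting at 0.1 OD. Cells were diploids selected after mating, first cultured 48 h with NAT and HPH in synthetic complete MSG medium, pH 6.0.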

B1: YDL160C_1 (protein, UniProt P39517 1-506, looked up)
ATP-dependent RNA helicase …: MGSINNNFNTNNNSNTDLDRDWKTALNIPKKDTRPQTDDVLNTKGNTFEDFYLKRELLMGIFEAGFEKPSPIQEEAIPVAITGRDILARAKNGTGKTAAFVIPTLEKVKPKLNKIQALIMVPTRELALQTSQVVRTLGKHCGISCMVTTGGTNLRDDILRLNETVHILVGTPGRVLDLASRKVADLSDCSLFIMDEADKMLSRDFKTIIEQILSFLPPTHQSLLFSATFPLTVKEFMVKHLHKPYEINLMEELTLKGITQYYAFVEERQKLHCLNTLFSKLQINQAIIFCNSTNRVELLAKKITDLGYSCYYSHARMKQQERNKVFHEFRQGKVRTLVCSDLLTRGIDIQAVNVVINFDFPKTAETYLHRIGRSGRFGHLGLAINLINWNDRFNLYKIEQELGTEIAAIPATIDKSLYVAENDETVPVPFPIEQQSYHQQAIPQQQLPSQQQFAIPPQQHHPQFMVPPSHQQQQAYPPPQMPSQQGYPPQQEHFMAMPPGQSQPQY
Q: With B1 as the molecule, how does the “Ratio (Deletedscore / WTscore)” value (bait RVS167) read?
A: The value was 0.8286.

B2: YGL060W_1 (protein, UniProt P53169 1-641, looked up)
YAP1-binding protein 2: MYNEQVNSGKSIKEKERYLDALLKILKDNPVTLKEIGWDLPKGLLQFFSRKNINVNIHLVFSPLVSSVMECFNELAINGNPKECLLTACELVSTLHIVLTETGDSDEENEDLNDSNRNDASNITDELSVITPEIGHYMAKNTVEFIPNLKIYVLFEFMSLLLKRVDTLYPSKFLAMVTSAIIKYVTTNVQAMDDPHFILRIVYNFCTNYSPAQPSASLTDGISTNDLEKIHDDESALQKKLLANLSVFVISNCLKNHPGNIDKIYFKTLMHKKTDENEIDASVLQICHQYYEYVTSLDVHMKELLEKCLVESRSIYNSLLMNPAASTPEFKEEINQLVYEVSYAYQIKKLADEKNLELDQYGVVILSAIHYSKNGTHLLPQIDIQSAIYLYLRCTTASLFSEIYENKFLESSVRYWLWVSTTETSTEKIKCALQELPGHITTAFLQMLLMKTCNESNNDTKLTEITLLRRLLYLMPESTSFTFIFETLLHCPYITAKIAVLDILRDMMIRSPEAANRDETVGLIEQQNPGNTANSVPIMPTLPPRPYITINEDRMASIHSIALICFSAAKQKKRTQGDLLLVLTYMKFFVSLRNKWDLGLLTLINKEISESFQGEGEPELAFINISNNTLGEYIEEMNIRS
Q: How did the “Ratio (Deletedscore / WTscore)” value (bait RVS167) turn out when B2 was run?
A: The value was 0.4505.

B3: YGL153W_2 (protein, UniProt P53112 2-341, looked up)
Peroxisomal membrane protein …: SDVVSKDRKALFDSAVSFLKDESIKDAPLLKKIEFLKSKGLTEKEIEIAMKEPKKDGIVGDEVSKKIGSTENRASQDMYLYEAMPPTLPHRDWKDYFVMATATAGLLYGAYEVTRRYVIPNILPEAKSKLEGDKKEIDDQFSKIDTVLNAIEAEQAEFRKKESETLKELSDTIAELKQALVQTTRSREKIEDEFRIVKLEVVNMQNTIDKFVSDNDGMQELNNIQKEMESLKSLMNNRMESGNAQDNRLFSISPNGIPGIDTIPSASEILAKMGMQEESDKEKENGSDANKDDNAVPAWKKAREQTIDSNASIPEWQKNTAANEISVPDWQNGQVEDSIP
Q: Which “Ratio (Deletedscore / WTscore)” value (bait BEM1-1) does the source give for B3 here?
A: Its value is 1.295.

B4: YJL095W_1 (protein, UniProt Q01389 1-1478, looked up)
Serine/threonine-protein …: MPFLRKIAGTAHTHSRSDSNSSVKFGHQPTSSVASTKSSSKSPRATSRKSIYDDIRSQFPNLTPNSTSSQFYESTPVIEQSFNWTTDDHISAGTLENPTSFTNSSYKNDNGPSSLSDSRKSSGGNSVNSLSFDKLILSWDPTDPDEWTMHRVTSWFKFHDFPESWILFFKKHQLFGHRFIKLLAYDNFAVYEKYLPQTKTASYTRFQQLLKKTMTKNVTNSHIRQKSASKLKSSRSSSESIKSKLKNSKSQEDISNSRSTSESALSPTKSGPSKTDEKNFLHSTSTHQKTKSASSLYRRSFISLRGSSSSNASSAKSPSNIKLSIPARPHSIIESNSTLTKSASPPASPSYPSIFRRHHKSSSSESSLLNSLFGSGIGEEAPTKPNPQGHSLSSENLAKGKSKHYETNVSSPLKQSSLPTSDDKGNLWNKFKRKSQIGVPSPNTVAYVTSQETPSLKSNSSTATLTVQTADVNIPSPSSSPPPIPKTANRSLEVISTEDTPKISSTTASFKETYPDCINPDKTVPVPVNNQKYSVKNFLLDQKFYPLKKTGLNDSENKYILVTKDNVSFVPLNLKSVAKLSSFKESALTKLGINHKNVTFHMTDFDCDIGAAIPDDTLEFLKKSLFLNTSGKIYIKDQMKLQQKPKPAPLTSENNVPLKSVKSKSSMRSGTSSLIASTDDVSIVTSSSDITSFDEHASGSGRRYPQTPSYYYDRVSNTNPTEELNYWNIKEVLSHEENAPKMVFKTSPKLELNLPDKGSKLNIPTPITENESKSSFQVLRKDEGTEIDFNHRRESPYTKPELAPKREAPKPPANTSPQRTLSTSKQNKPIRLVRASTKISRSKRSKPLPPQLLSSPIEASSSSPDSLTSSYTPASTHVLIPQPYKGANDVMRRLKTDQDSTSTSPSLKMKQKVNRSNSTVSTSNSIFYSPSPLLKRGNSKRVVSSTSAADIFEENDITFADAPPMFDSDDSDDDSSSSDDIIWSKKKTAPETNNENKKDEKSDNSSTHSDEIFYDSQTQDKMERKMTFRPSPEVVYQNLEKFFPRANLDKPITEGIASPTSPKSLDSLLSPKNVASSRTEPSTPSRPVPPDSSYEFIQDGLNGKNKPLNQAKTPKRTKTIRTIAHEASLARKNSVKLKRQNTKMWGTRMVEVTENHMVSINKAKNSKGEYKEFAWMKGEMIGKGSFGAVYLCLNVTTGEMMAVKQVEVPKYSSQNEAILSTVEALRSEVSTLKDLDHLNIVQYLGFENKNNIYSLFLEYVAGGSVGSLIRMYGRFDEPLIKHLTTQVLKGLAYLHSKGILHRDMKADNLLLDQDGICKISDFGISRKSKDIYSNSDMTMRGTVFWMAPEMVDTKQGYSAKVDIWSLGCIVLEMFAGKRPWSNLEVVAAMFKIGKSKSAPPIPEDTLPLISQIGRNFLDACFEINPEKRPTANELLSHPFSEVNETFNFKSTRLAKFIKSNDKLNSSKLRITSQENKTE
Q: Which “Ratio (Deletedscore / WTscore)” value (bait NBP2) does the source give for B4 here?
A: The value was 0.6492.

B5: YDR329C_2 (protein, UniProt P28795 1-441, looked up)
Peroxisomal biogenesis factor …: MAPNQRSRSLLQRHRGKVLISLTGIAALFTTGSVVVFFVKRWLYKQQLRITEQHFIKEQIKRRFEQTQEDSLYTIYELLPVWRMVLNENDLNLDSIVTQLKDQKNQLTRAKSSESRESSPLKSKAELWNELELKSLIKLVTVTYTVSSLILLTRLQLNILTRNEYLDSAIKLTMQQENCNKLQNRFYNWVTSWWSDPEDKADDAMVMAAKKSKKEGQEVYINEQAFLSLSWWILNKGWLSYNEIITNQIEIEFDGIHPRDTLTLEEFSSRLTNIFRNTNSQIFQQNNNNLTSILLPKDSSGQEFLLSQTLDADALTSFHSNTLVFNQLVNELTQCIESTATSIVLESLINESFHFIMNKVGIKTIAKKKPGQEDQQQYQMAVFAMSMKDCCQEMLQTTAGSSHSGSVNEYLATLDSVQPLDDLSASVYSNFGVSSSFSFKP
Q: For B5, which “Ratio (Deletedscore / WTscore)” value (bait BEM1-1) is on record?
A: The value was 1.085.

B6: YML035C_1 (protein, UniProt P15274 1-810, looked up)
AMP deaminase: MDNQATQRLNDLSLEPAPSHDEQDGSGLVIDIDQRKIGDEQAGVVVDDETPPLEQQDSHESLAADSRNANFSYHENQQLLENGTKQLALDEHDSHSAILEQPSHSTNCSSSNIAAMNKGHDSADHASQNSGGKPRTLSASAQHILPETLKSFAGAPVVNKQVRTSASYKMGMLADDASQQFLDDPSSELIDLYSKVAECRNLRAKYQTISVQNDDQNPKNKPGWVVYPPPPKPSYNSDTKTVVPVTNKPDAEVFDFTKCEIPGEDPDWEFTLNDDDSYVVHRSGKTDELIAQIPTLRDYYLDLEKMISISSDGPAKSFAYRRLQYLEARWNLYYLLNEYQETSVSKRNPHRDFYNVRKVDTHVHHSACMNQKHLLRFIKHKLRHSKDEKVIFRDGKLLTLDEVFRSLHLTGYDLSIDTLDMHAHKDTFHRFDKFNLKYNPIGESRLREIFLKTNNYIKGTYLADITKQVIFDLENSKYQNCEYRISVYGRSLDEWDKLASWVIDNKVISHNVRWLVQIPRLYDIYKKTGIVQSFQDICKNLFQPLFEVTKNPQSHPKLHVFLQRVIGFDSVDDESKVDRRFHRKYPKPSLWEAPQNPPYSYYLYYLYSNVASLNQWRAKRGFNTLVLRPHCGEAGDPEHLVSAYLLAHGISHGILLRKVPFVQYLYYLDQVGIAMSPLSNNALFLTYDKNPFPRYFKRGLNVSLSTDDPLQFSYTREPLIEEYSVAAQIYKLSNVDMCELARNSVLQSGWEAQIKKHWIGKDFDKSGVEGNDVVRTNVPDIRINYRYDTLSTELELVNHFANFKRTIEEK
Q: For B6, which “Ratio (Deletedscore / WTscore)” value (bait) is on record?
A: The value was 0.7244.

B7: YKR082W_1 (protein, UniProt P36161 2-1157, looked up)
Nucleoporin NUP133: SEKKVHLRLRKELSVPIAVVENESLAQLSYEEESQASLMDISMEQQQLRLHSHFDNSKVFTENNRYIVKTLQTDYSSGFSNDDELNGYIDMQIGYGLVNDHKKVYIWNIHSTQKDTPYITVPFRSDDNDEIAVAPRCILTFPATMDESPLALNPNDQDETGGLIIIKGSKAIYYEDINSINNLNFKLSEKFSHELELPINSSGGEKCDLMLNCEPAGIVLSTNMGRIFFITIRNSMGKPQLKLGKLLNKPFKLGIWSKIFNTNSSVVSLRNGPILGKGTRLVYITTNKGIFQTWQLSATNSHPTKLIDVNIYEAILESLQDLYPFAHGTLKIWDSHPLQDESSQLFLSSIYDSSCNETYYILSTIIFDSSSNSFTIFSTYRLNTFMESITDTKFKPKIFIPQMENANDTNEVTSILVMFPNAVVITQVNSKLDSSYSMRRKWEDIVSLRNDIDIIGSGYDSKSLYVLTKQMGVLQFFVKENEETNSKPEVGFVKSHVDQAVYFSKINANPIDFNLPPEISLDQESIEHDLKLTSEEIFHSNGKYIPPMLNTLGQHLSVRKEFFQNFLTFVAKNFNYKISPELKLDLIEKFEILNCCIKFNSIIRQSDVLNDIWEKTLSNYNLTQNEHLTTKTVVINSPDVFPVIFKQFLNHVVFVLFPSQNQNFKLNVTNLINLCFYDGILEEGEKTIRYELLELDPMEVDTSKLPWFINFDYLNCINQCFFDFTFACEEEGSLDSYKEGLLKIVKILYYQFNQFKIWINTQPVKSVNANDNFININNLYDDNHLDWNHVLCKVNLKEQCIQIAEFYKDLSGLVQTLQTLDQNDSTTVSLYETFFNEFPKEFSFTLFEYLIKHKKLNDLIFRFPQQHDVLIQFFQESAPKYGHVAWIQQILDGSYADAMNTLKNITVDDSKKGESLSECELHLNVAKLSSLLVEKDNLDINTLRKIQYNLDTIDAEKNISNKLKKGEVQICKRFKNGSIREVFNILVEELKSTTVVNLSDLVELYSMLDDEESLFIPLRLLSVDGNLLNFEVKKFLNALVWRRIVLLNASNEGDKLLQHIVKRVFDEELPKNNDFPLPSVDLLCDKSLLTPEYISETYGRFPIDQNAIREEIYEEISQVETLNSDNSLEIKLHSTIGSVAKEKNYTINYETNTVEY
Q: Which “Ratio (Deletedscore / WTscore)” value (bait RVS167) does the source give for B7 here?
A: Its value is 0.6329.
